We go through 9 molecules from patent US7537764.

The target in assay [1] is T1, West Nile virus strain USA99b (strain 385-99), whole virus (West Nile virus strain 385-99 (USA99b)).
T1 construct: mature
As to the kind of experiment: phage ELISA on coated whole inactivated WNV. (In general: In an ELISA, binding on a coated surface is turned into a signal by an enzyme label.)

The target of assay [2] is T2, recombinantly expressed purified soluble WNV E protein (truncated form, strain 382-99) (West Nile virus strain 382-99, UniProt Q9Q6P4 291-696).
T2 construct: also called recombinant WNV-E protein; truncated E protein
T2 sequence: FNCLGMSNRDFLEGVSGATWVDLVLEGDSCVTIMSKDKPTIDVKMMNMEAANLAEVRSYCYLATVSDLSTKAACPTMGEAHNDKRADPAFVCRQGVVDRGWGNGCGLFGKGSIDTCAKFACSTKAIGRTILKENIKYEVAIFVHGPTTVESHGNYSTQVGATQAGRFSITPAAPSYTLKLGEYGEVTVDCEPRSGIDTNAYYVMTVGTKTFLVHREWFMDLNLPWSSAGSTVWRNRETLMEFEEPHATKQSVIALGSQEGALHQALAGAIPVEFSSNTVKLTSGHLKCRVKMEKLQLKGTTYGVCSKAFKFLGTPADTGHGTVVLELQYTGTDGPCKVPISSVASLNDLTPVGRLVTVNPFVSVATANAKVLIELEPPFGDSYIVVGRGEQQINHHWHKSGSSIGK
As to the kind of experiment: phage ELISA on coated recombinant soluble WNV E protein.

B1: SC04-283 (scFv)
scFv: EVQLVQSGAEVKKSGESLKISCKGSGYTFNTYWIGWVRQMPGKGLEWMGIIYPGDSDTIYSPSFQGQVTISADKSISTAYLQWSSLKASDSAMYYCARLTFRRGYSGSDSFLPPGDFDYWGQGTLVTVSSGTGGSGGTGSGTGGSTDIQMTQSPSTLSASVGDRVTITCRASQSISSWLAWYQQKPGKAPNLLIYAASSLQSGVPSRFSGSGSGTDFTLTISSLQPDDSATYYCQQYNTYPLTFGGGTKVEIKR
With B1, the “OD 492 nm” value in assay [1] turned out to be 1.21 OD; in assay [2], 0.074 OD.

B2: SC04-353 (scFv)
scFv: EVQLVQSGGGVVQPGRSLRLSCAASGFTFSNYAMHWVRQAPGKGLEWVAVISYDGGNKYYADSVKGRFTMSRDNSKNTLYLQMNSLRAEDTAVYYCARDFWSGYSMVDSYYYYMDVWGKGTTVTVSSGTGGSGGTGSGTGGSTETTLTQSPGTLSLSPGERATLSCRASQSVSNTFLAWYQQKPGQAPRLLIYGASSRATGIPDRFSGSGSGTDFTLTISRLEPEDFAAYYCQQYGSSLTFGPGTKVDIKR
With B2, the “OD 492 nm” value in assay [2] turned out to be 0.099 OD.

B3: SC04-325 (scFv)
scFv: QMQLVQSGAEVKKPGSSVKVSCKASGDTFSSYAISWVRQAPGQGLEWMGGIFGTASYAQKFQGRVTITADESTSTAYMELSSLRSEDTAVYYCARGGMATTPGLDYWGQGTLVTVSSGTGGSGGTGSGTGGSTDIQLTQSPDSLAVSLGERATINCKSSQSVLYSSNNKNYLAWYQQKPGQPPKLLIYWASTRESGVPDRFSGSGSGTDFTLTISSLQAEDVAVYYCQQYYSTPLTFGQGTKVEIKR
In the case of B3, the “OD 492 nm” value in assay [2] came to 1.4 OD.

B4: SC04-271 (scFv)
scFv: EVQLVETGAEVKKPGESLRISCKGSGYTFNNYWIGWVRQMPGKGLEWMGIIYPGDSDTRYSPSVQGHVTISADKSINTAYLQWSSLKASDTAVYYCARRPGYDYGFYYFDYWGQGTLVTVSSGTGGSGGTGSGTGGSTQSALTQPRSVSGSPGQSVTISCTGTSSDVGGYNYVSWYQHHPGKAPKLMIYDVSNRPLGVSNRFSGSKSGNTASLTISGLQAEDEADYYCSSYTSSSTYVFGTGTHLTVLS
As for B4, the “OD 492 nm” value in assay [1] was found to be 0.984 OD; in assay [2], 0.608 OD.

B5: SC04-289 (scFv)
scFv: QMQLVQSGAEVKKPGESLRISCKGSGYSFTSNWITWVRQMPGKGLEWMGRIDPSDSYTNYSPSFQGHVTISADKSISTAYLQWSSLKASDTAMYYCARDVVGVGASDYYYYMDVWGKGTTVTVSSGTGGSGGTGSGTGGSTEIVLTQSPGTLSLSPGETATLSCRTSQSVSSSYLGWYQQKPGQAPRLLIYGASIRATGIPARFSGSGSGTEFTLTIDSLQSEDFAVYYCQQYNNWPPITFGQGTRLEIKR
On to B5, for which the “OD 492 nm” value in assay [1] worked out at 0.759 OD; in assay [2], 1.39 OD.

B6: SC04-299 (scFv)
scFv: EVQLVETGGGVVQPGRSLRLSCAASGFTFSGYAMHWVRQAPGKGLDWVAVISYDGSEKYSADSVKGRFTISRDNSKNTLYLQMNSLRAEDTAVYYCAKESGGPIWYKYYGVDVWGQGTTVTVSSGTGGSGGTGSGTGGSTSYVLTQPPSLSAAPRQRVTISCSGSSSNIGNYGVNWYQQLPGKAPKLLIYYDDLLPSGVSDRFSGSKSGTSASLAISGLQSEDEGDYYCAAWDDTLSAWVFGGGTKLTVLG
B6: the “OD 492 nm” value in assay [1] came to 1.07 OD; in assay [2], 0.072 OD.

B7: SC04-311 (scFv)
scFv: EVQLVQSGGGVVQPGRSLRLSCVASGFTFSKDAMHWVRQAPGKGLEWVAVISYDGSDKHYADSVKGRVTISRDNSRKTLYLRMDSLRAEDTALYYCARGYNSGHYFDYWGQGTLITVSSGTGGSGGTGSGTGGSTQSVLTQPPSVSAAPGQKVTISCSGTSSNIGDNYVSWYQHLPGTAPKLLIYDNNKRPSGIPDRFSGSKSGTSATLGVTGLQTGDEADYYCGTWDSSLTAVVFGGGTKLTVLG
With B7, the “OD 492 nm” value amounted to 1.04 OD in assay [1] and 1.54 OD in assay [2].

B8: SC04-374 (scFv)
scFv: QVTLKESGPTLVKPTQTLTLTCTFSGFSLSTSGVGVGWIRQPPGKALEWLAVIYWNDDKLYRPSLKSRLTITKDTSKNQVVLTMTKMDPVDTATYYCAHRHRYYDISGYYRLFSDAFDIWGQGTMVTVSSGTGGSGGTGSGTGGSTQSVVTQPPSVSGAPGQRVTISCTGSSSNIGAGYDVHWYQQLPGTAPKLLIYGNSNRPSGVPDRFSGSKSGTSASLAITGLQAEDEADYYCQSYDSSLSGSVFGGGTKLTVLG
For B8, the “OD 492 nm” value in assay [2] was determined as 1.36 OD.

B9: SC04-361 (scFv)
scFv: EVQLVQSGAEVKKPGESLKISCKASGFSFSTYWIGWVRQMPGKGLEWMGIIYPADSDTRYSPSFQGQVTISADKSISTAYLQWSSLKASDTAMYYCARLRGPYYDFWNGYRETHDAFNVWGQGTMVTVSSGTGGSGGTGSGTGGSTDVVMTQSPDSLAVSLGERATINCKSSQNILDNSDNKNFLAWYQQKPGQPPKLLIYWASARESGVPDRFSGSGSGTDFTLTISSLQAEDVALYYCQQYYNTPITFGQGTRLEIKR
Take B9: the “OD 492 nm” value in assay [2] worked out at 0.076 OD.
